Measured values from patent US20260258084A1, “New Peptides as Selective IL-23 Receptor Antagonists” (Sanofi, priority 2022, published 2026).
Starred links: 1 amine or outer side, 2 acyl side, 3 side chain; linkers in the order of their positions; H or OH if unused. Positions of bridges follow the written chain, without caps; N, C: chain ends. Non-standard residues stand in square brackets, D forms with d. No end group written: not given here. *: point of attachment. Yde = (2S)-2-amino-3-[4-[2-(dimethylamino)ethoxy]phenyl]propanoic acid, CN(C)CCOc1ccc(C[C@H](N[*:1])C(=O)[*:2])cc1; Trp(7-Me) = Cc1cccc2c(C[C@H](N)C(=O)O)c[nH]c12; Trp(1-Me) = Cn1cc(C[C@H](N)C(=O)O)c2ccccc21; αMeLys(Me2) = CN(C)CCCC[C@](C)(N)C(=O)O; 2Nal = N[C@@H](Cc1ccc2ccccc2c1)C(=O)O; εLys = N[C@@H](CCCCN[*:1])C(=O)[*:2]; Palmitoyl = CCCCCCCCCCCCCCCC(=O)*; 3Pal = N[C@@H](Cc1cccnc1)C(=O)O; Dad = desamino-aspartamic acid; Lys(Me) = CNCCCC[C@H](N)C(=O)O; αMeL = CC(C)C[C@](C)(N)C(=O)O; αMeK = C[C@](N)(CCCCN)C(=O)O; NMeC = CN[C@@H](CS)C(=O)O; Thp = NC1(C(=O)O)CCOCC1; Abu = CC[C@H](N)C(=O)O; Aib = CC(C)(N)C(=O)O; Ava = NCCCCC(=O)O; Sar = CNCC(=O)O

T1: IL-23 receptor on the surface of HEK-Blue IL-23 cells (UniProt Q5VWK5 24-629, limits assumed)
T1 sequence (looked up): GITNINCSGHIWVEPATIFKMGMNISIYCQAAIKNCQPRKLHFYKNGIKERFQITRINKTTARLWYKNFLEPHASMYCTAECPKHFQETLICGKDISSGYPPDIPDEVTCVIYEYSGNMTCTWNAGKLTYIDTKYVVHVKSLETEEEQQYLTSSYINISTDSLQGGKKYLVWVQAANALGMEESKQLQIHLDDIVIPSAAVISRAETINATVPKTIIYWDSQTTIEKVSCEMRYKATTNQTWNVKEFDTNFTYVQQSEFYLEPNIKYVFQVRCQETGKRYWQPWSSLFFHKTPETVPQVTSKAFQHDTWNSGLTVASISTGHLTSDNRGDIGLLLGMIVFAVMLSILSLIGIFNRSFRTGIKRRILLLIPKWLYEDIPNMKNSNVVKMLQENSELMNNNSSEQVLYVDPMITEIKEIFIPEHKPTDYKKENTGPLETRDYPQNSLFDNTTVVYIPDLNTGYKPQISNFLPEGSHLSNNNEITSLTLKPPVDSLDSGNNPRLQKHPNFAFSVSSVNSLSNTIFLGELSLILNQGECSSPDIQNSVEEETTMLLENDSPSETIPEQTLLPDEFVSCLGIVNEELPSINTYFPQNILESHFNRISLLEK

B1: Compound of SEQ ID NO: 149 (peptide)
peptide: [Ava]CK[Trp(7-Me)]K(Ac)C[Yde][2Nal][αMeLys(Me2)]EN[3Pal][Sar]-NH2
modifications: lactam N-10; disulfide 2-6; not fully specified (residue 3); printed as Apt(§1)-C(§3)(@2)-K[aAc](@3)-Wim-K[Ac]-C(@2)-Yde-Nal-MKdm-E(§1)-N-Pal-Sar-NH2; also: K3 acetylated (K[aAc]), acetyl site not given here, ε-NH2 takes the Cys2 bond
B2: Compound of SEQ ID NO: 122 (peptide)
peptide: [Dad][Abu]K[Trp(7-Me)]K(Ac)C[Yde][2Nal][Thp]KN[3Pal][Sar]-NH2
modifications: lactam (positions not given here); thioether 2-6; not fully specified (residue 3, bridges); printed as Dad(§1)-Abu(§3)(@2)-K[aAc](@3)-Wim-K[Ac]-C(@2)-Yde-Nal-Thp-K(§1)-N-Pal-Sar-NH2; also: K[aAc]: Abu2 bonded to epsilon-NH2 of acetylated Lys3, acetyl presumably on alpha-amine
B3: Compound of SEQ ID NO: 72 (peptide)
peptide: [Ava]C[εLys](Ac)[Trp(7-Me)]K(Ac)C[Yde][2Nal][Aib]EN[3Pal][Sar]-NH2
modifications: lactam N-10; disulfide 2-6; also: Cys2 carboxyl joined to epsilon-NH2 of Lys3 (isopeptide bond), Lys3 alpha-N acetylated
B4: Compound of SEQ ID NO: 74 (peptide)
peptide: [Dad][NMeC]K[Trp(7-Me)]K(Ac)C[Yde][2Nal][Thp][Lys(Me)]N[3Pal][Sar]-NH2
modifications: lactam 1-10; disulfide 2-6; not fully specified (residue 3); printed as Dad(§1)-Nmc(§3)(@2)-K[aAc](@3)-Wim-K[Ac]-C(@2)-Yde-Nal-Thp-Kme(§1)-N-Pal-Sar-NH2; also: Nmc2 carbonyl joined by amide bond to epsilon-NH2 of Lys3 (branched isopeptide), Lys3 alpha-NH2 acetylated
B5: Compound of SEQ ID NO: 69 (peptide)
peptide: [Dad][NMeC][εLys](Ac)[Trp(7-Me)]LC[Yde][2Nal][αMeL][Lys(Me)]N[3Pal][Sar]-NH2
modifications: lactam (positions not given here); disulfide 2-6; not fully specified (bridges); printed as Dad(§1)-Nmc(§3)(@2)-K[aAc](@3)-Wim-L-C(@2)-Yde-Nal-Mle-Kme(§1)-N-Pal-Sar-NH2; also: Nmc2 carboxyl joined to epsilon-NH2 of Lys3 (isopeptide bond), Lys3 alpha-N acetylated
B6: Compound of SEQ ID NO: 73 (peptide)
peptide: [Ava]C[εLys](Ac)[Trp(7-Me)]K(Ac)C[Yde][2Nal][αMeL]EN[3Pal][Sar]-NH2
modifications: lactam N-10; disulfide 2-6; also: Cys2 carboxyl joined to epsilon-NH2 of Lys3 (isopeptide bond), Lys3 alpha-N acetylated
B7: Compound of SEQ ID NO: 67 (peptide)
peptide: [Ava]C[εLys](Ac)[Trp(7-Me)]K(Ac)C[Yde][2Nal][αMeK](Palmitoyl)EN[3Pal][Sar]-NH2
modifications: lactam N-10; disulfide 2-6; also: Cys2 carboxyl joined to epsilon-NH2 of Lys3 (isopeptide bond), Lys3 alpha-N acetylated
B8: Compound of SEQ ID NO: 66 (peptide)
peptide: [Ava]C[εLys](Ac)[Trp(7-Me)]K(Ac)C[Yde][2Nal][Thp]EN[3Pal][Sar]-NH2
modifications: lactam N-10; disulfide 2-6; also: Cys2 carboxyl joined to epsilon-NH2 of Lys3 (isopeptide bond), Lys3 alpha-N acetylated
B9: Compound of SEQ ID NO: 105 (peptide)
peptide: [Dad]CK[Trp(7-Me)]K(Ac)C[Yde][2Nal][Thp]KN[3Pal][Sar]-NH2
modifications: lactam (positions not given here); disulfide 2-6; not fully specified (residue 3, bridges); printed as Dad(§1)-C(§3)(@2)-K[aAc](@3)-Wim-K[Ac]-C(@2)-Yde-Nal-Thp-K(§1)-N-Pal-Sar-NH2; also: K[aAc]: Cys2 bonded to epsilon-NH2 of acetylated Lys3, acetyl presumably on alpha-amine
B10: Compound of SEQ ID NO: 68 (peptide)
peptide: [Dad]C[εLys](Ac)[Trp(7-Me)]LC[Yde][2Nal][αMeL][Lys(Me)]N[3Pal][Sar]-NH2
modifications: lactam (positions not given here); disulfide 2-6; not fully specified (bridges); printed as Dad(§1)-C(§3)(@2)-K[aAc](@3)-Wim-L-C(@2)-Yde-Nal-Mle-Kme(§1)-N-Pal-Sar-NH2; also: Cys2 bonded to ε-NH2 of Lys3 (isopeptide backbone)
B11: Compound of SEQ ID NO: 126 (peptide)
peptide: [Ava]CK[Trp(1-Me)]K(Ac)C[Yde][2Nal][Thp]EN[3Pal][Sar]-NH2
modifications: lactam N-10; disulfide 2-6; not fully specified (residue 3); printed as Apt(§1)-C(§3)(@2)-K[aAc](@3)-Wme-K[Ac]-C(@2)-Yde-Nal-ThpE(§1)-N-Pal-Sar-NH2; also: K[aAc]: Cys2 bonded to epsilon-NH2 of acetylated Lys3, acetyl presumably on alpha-amine
B12: Compound of SEQ ID NO: 106 (peptide)
peptide: [Dad]CK[Trp(7-Me)]K(Ac)C[Yde][2Nal][αMeL]KN[3Pal][Sar]-NH2
modifications: lactam (positions not given here); disulfide 2-6; not fully specified (residue 3, bridges); printed as Dad(§1)-C(§3)(@2)-K[aAc](@3)-Wim-K[Ac]-C(@2)-Yde-Nal-Mle-K(§1)-N-Pal-Sar-NH2; also: K[aAc]: Cys2 bonded to epsilon-NH2 of acetylated Lys3, acetyl presumably on alpha-amine
B13: Compound of SEQ ID NO: 104 (peptide)
peptide: [Dad]CK[Trp(7-Me)]K(Ac)C[Yde][2Nal][Aib]KN[3Pal][Sar]-NH2
modifications: lactam (positions not given here); disulfide 2-6; not fully specified (residue 3, bridges); printed as Dad(§1)-C(§3)(@2)-K[aAc](@3)-Wim-K[Ac]-C(@2)-Yde-Nal-Aib-K(§1)-N-Pal-Sar-NH2; also: K[aAc]: Cys2 bonded to epsilon-NH2 of acetylated Lys3, acetyl presumably on alpha-amine
B14: Compound of SEQ ID NO: 8 (peptide)
peptide: [Ava]CNTWQC[Yde][2Nal][Aib]ENN-NH2
modifications: lactam (positions not given here); disulfide 2-7; not fully specified (bridges); printed as Apt(§1)-C(@2)-N-T-W-Q-C(@2)-Yde-Nal-Aib-E(§1)-N—N—NH2
B15: Compound of SEQ ID NO: 71 (peptide)
peptide: [Dad]CNT[Trp(7-Me)]QC[Yde][2Nal][Aib]KN[3Pal]K-NH2
modifications: lactam (positions not given here); disulfide 2-7; not fully specified (residue 14, bridges); printed as Dad(§1)-C(@2)-N-T-Wim-Q-C(@2)-Yde-Nal-Aib-K(§1)-N-Pal-K[Sema]-NH2
B16: Compound of SEQ ID NO: 103 (peptide)
peptide: [Dad]CNT[Trp(7-Me)]K(Ac)C[Yde][2Nal][αMeL]KN[3Pal][Sar]-NH2
modifications: lactam (positions not given here); disulfide 2-7; not fully specified (bridges); printed as Dad(§1)-C(@2)-N-T-Wim-K[Ac]-C(@2)-Yde-Nal-Mle-K(§1)-N-Pal-Sar-NH2
B17: Compound of SEQ ID NO: 102 (peptide)
peptide: [Dad]CNT[Trp(7-Me)]K(Ac)C[Yde][2Nal][Thp]KN[3Pal][Sar]-NH2
modifications: lactam (positions not given here); disulfide 2-7; not fully specified (bridges); printed as Dad(§1)-C(@2)-N-T-Wim-K[Ac]-C(@2)-Yde-Nal-Thp-K(§1)-N-Pal-Sar-NH2

biological target: T1, IL-23 receptor on the surface of …; assay: cell-based or functional assay

pSTAT3 (nM)	Binder
0.04	B1
0.37	B2
0.12	B3
3.94	XXKXLCXXXXAXX (Dad(§1)-Nmc(§3)(@2)-K[aAc](@3)-Wim-L-C(@2)-Yde-Nal-Mie-Kme(§1)-A-Pal-Sar-NH2) [Compound of SEQ ID NO: 70]
0.12	B4
3.07	B5
0.1	B6
22.6	B7
0.15	B8
0.1	B9
2.69	B10
0.11	B11
0.13	B12
0.1	B13
5.54	B14
2.35	B15
0.11	B16
0.09	B17
